Experimental findings from patent US20160159922A1 are described below.

In the experiment the target is citrullinated human fibrinogen peptide, residues 36-52 (cit-fib) (human). Briefly: reactivity test against citrullinated peptide; arbitrary units relative to a serum pool standard; antibody at 5 ug/ml.

B1: ACPA11 (antibody, V domains shown)
VH: HLQLQESGPKLVKTSETLSLNCSVSRESIVRNDKFWGWVRQPPGKGLEWIGSINPLGRTFYTTSLKDRIRISFDTSEGYFSLSVASVTAADTAIYYCATDGEGVLFDEWSQGTLVTVSS
VL: QPVMTQPPSACGTPGQRVTIPCSGNTSNIGYNIVNWYQQVPGTAPKLLIYDNDKRPSGVPDRFSASKSVTSASLVISGLQSADEADYYCAVWDDDLSGVVIGEGTKLTVL
Consider B1, for which the reactivity (Au/ml at 5 ug/ml) was found to be 21 Au/ml.
